Among the data in US20190375823A1 (Zymeworks, published 2019) are binding result and Kd values, retold here.

Data set [1] concerns the molecule itself. The experiment in a line: native gel after co-expression (1:1 DNA level).
The target of another data set is T1, CD19 on Raji B cells (UniProt P15391 20-556, limits assumed).
T1 construct: whole, on cells; also called Raji CD19 B cells
T1 sequence (looked up): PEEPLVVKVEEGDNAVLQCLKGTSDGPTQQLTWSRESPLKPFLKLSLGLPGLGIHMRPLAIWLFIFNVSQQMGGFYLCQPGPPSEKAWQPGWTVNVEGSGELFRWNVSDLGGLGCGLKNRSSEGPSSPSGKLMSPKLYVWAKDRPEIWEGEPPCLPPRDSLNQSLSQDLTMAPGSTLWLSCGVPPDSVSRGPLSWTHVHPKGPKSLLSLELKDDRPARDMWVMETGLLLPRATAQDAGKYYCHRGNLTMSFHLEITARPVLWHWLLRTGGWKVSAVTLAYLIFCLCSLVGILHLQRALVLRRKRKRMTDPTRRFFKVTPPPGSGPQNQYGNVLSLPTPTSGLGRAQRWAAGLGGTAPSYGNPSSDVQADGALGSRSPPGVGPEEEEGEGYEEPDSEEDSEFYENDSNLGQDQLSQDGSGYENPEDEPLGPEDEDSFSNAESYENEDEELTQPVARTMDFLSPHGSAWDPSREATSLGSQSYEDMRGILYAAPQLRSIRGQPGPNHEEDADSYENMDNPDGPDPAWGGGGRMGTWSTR
Description: FACS on Raji cells (CD19).

The target in a further data set is T2, Human FcRn (hFcRn) (human, UniProt P55899 24-297; P61769 21-119, limits assumed).
T2 construct: also called neonatal Fc receptor
The experiment in a line: SPR, hFcRn immobilized, v1378 flowed over at pH 6.0. An excerpt:
Methods are identical to Example 2, except the directionality of the assay was reversed.

T2 sequence (P55899 24-297 limits assumed, chain 1 of 2): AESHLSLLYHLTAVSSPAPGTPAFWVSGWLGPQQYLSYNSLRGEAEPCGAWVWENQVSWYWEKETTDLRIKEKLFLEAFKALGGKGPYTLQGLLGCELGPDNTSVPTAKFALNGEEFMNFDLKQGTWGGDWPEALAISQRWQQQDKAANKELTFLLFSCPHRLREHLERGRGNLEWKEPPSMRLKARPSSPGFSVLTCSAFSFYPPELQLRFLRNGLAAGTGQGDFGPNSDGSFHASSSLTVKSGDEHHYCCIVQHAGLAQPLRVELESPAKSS
T2 sequence (P61769 21-119 limits assumed, chain 2 of 2): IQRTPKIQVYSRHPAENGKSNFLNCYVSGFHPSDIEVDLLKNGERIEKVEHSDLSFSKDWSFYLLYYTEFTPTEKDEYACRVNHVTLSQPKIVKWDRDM

B1: Albumin based Transporter polypeptide 1-Ver 1 (ABH1 fragment, albumin 1:293) (other)
chain: DAHKSEVAHRFKDLGEENFKALVLIAFAQYLQQCPFEDHVKLVNEVTEFAKTCVADESAENCDKSLHTLFGDKLCTVATLRETYGEMADCCAKQEPERNECFLQHKDDNPNLPRLVRPEVDVMCTAFHDNEETFLKKYLYEIARRHPYFYAPELLFFAKRYKAAFTECCQAADKAACLLPKLDELRDEGKASSAKQRLKCASLQKFGERAFKAWAVARLSQRFPKAEFAEVSKLVTDLTKVHTECCHGDLLECADDRADLAKYICENQDSISSKLKECCEKPLLEKSHCIAEV
notes: also called ABH1 transporter polypeptide A; ABH1 fragment 1
In the case of B1, the binding result in data set [1] was “no binding”.

B2: V1093 (bispecific antibody)
anti-CD19 scFv fused to the N terminus of transporter polypeptide 1 (albumin 1-337): DIQLTQSPASLAVSLGQRATISCKASQSVDYDGDSYLNWYQQIPGQPPKLLIYDASNLVSGIPPRFSGSGSGTDFTLNIHPVEKVDAATYHCQQSTEDPWTFGGGTKLEIKGGGGSGGGGSGGGGSQVQLQQSGAELVRPGSSVKISCKASGYAFSSYWMNWVKQRPGQGLEWIGQIWPGDGDTNYNGKFKGKATLTADESSSTAYMQLSSLASEDSAVYFCARRETTTVGRYYYAMDYWGQGTTVTVSSGGSDAHKSEVAHRFKDLGEENFKALVLIAFAQYLQQCPFEDHVKLVNEVTEFAKTCVADESAENCDKSLHTLFGDKLCTVATLRETYGEMADCCAKQEPERNECFLQHKDDNPNLPRLVRPEVDVMCTAFHDNEETFLKKYLYEIARRHPYFYAPELLFFAKRYKAAFTECCQAADKAACLLPKLDELRDEGKASSAKQRLKCASLQKFGERAFKAWAVARLSQRFPKAEFAEVSKLVTDLTKVHTECCHGDLLECADDRADLAKYICENQDSISSKLKECCEKPLLEKSHCIAEVENDEMPADLPSLAADFVESKDVCKNYAEAKDVFLGMFLYEYARA
transporter polypeptide 2 (albumin 342-585) with anti-CD3 scFv at the C terminus: not shown
In the case of B2, binding with CD19 on Raji B cells was characterised by a dissociation constant (Kd) of 49 nM.

B3: v1378: AlbuCORE_1 (ABH2) with anti-HER3 at the N terminus of fragment 1 and anti-HER2 (4D5) at the N terminus of fragment 2 (bispecific antibody)
chain 1: QVQLQESGGGLVKPGGSLRLSCAASGFTFSSYWMSWVRQAPGKGLEWVANINRDGSASYYVDSVKGRFTISRDDAKNSLYLQMNSLRAEDTAVYYCARDRGVGYFDLWGRGTLVTVSSASTGGGGSGGGGSGGGGSQSALTQPASVSGSPGQSITISCTGTSSDVGGYNFVSWYQQHPGKAPKLMIYDVSDRPSGVSDRFSGSKSGNTASLIISGLQADDEADYYCSSYGSSSTHVIFGGGTKVTVLGGGSDAHKSEVAHRFKDLGEENFKALVLIAFAQYLQQCPFEDHVKLVNEVTEFAKTCVADESAENCDKSLHTLFGDKLCTVATLRETYGEMADCCAKQEPERNECFLQHKDDNPNLPRLVRPEVDVMCTAFHDNEETFLKKYLYEIARRHPYFYAPELLFFAKRYKAAFTECCQAADKAACLLPKLDELRDEGKASSAKQRLKCASLQKFGERAFKAWAVARLSQRFPKAEFAEVSKLVTDLTKVHTECCHGDLLECADDRADLAKYICENQDSISSKLKECCEKPLLEKSHCIAEVENDEMPADLPSLAADFVESKDVCKNYAEAKDVFLGMFLYEYARA
chain 2: not shown
notes: also called variant 1378; anti-Her3xHer2 ABH2
With B3, the Kd (commonly the constant that tells how readily two partners part at equilibrium) with Human FcRn (hFcRn) stood at 970 nM.
